Data on 3 molecules can be found in patent US20250011427A1 (CONCEPT TO MEDICINE BIOTECH, published 2025).

Usually EC50 (read off the curve) stands for the concentration giving half of the maximal effect.

Experiment [1] addresses human CD3 on cells (human PBMC; Jurkat-CD3-NFAT and TCR/CD3 Effector reporter cells) (human) (UniProt P07766). In words: cell-based or functional assay.
Experiment [2] addresses T1, human CD3 on cells (human PBMC; Jurkat-CD3-NFAT and TCR/CD3 Effector reporter cells) (human, UniProt P07766 23-207; P04234 22-171; P09693 23-182).
T1 construct: whole, on cells; The CD3 complex as carried by T cells; also called huPBMC; CD3 receptor
In words: FACS on human PBMC, PE goat anti-human IgG Fc secondary antibody, geometric mean fluorescence. As to the method: FACS was used to evaluate the binding activity of 153A6B1, 155A9B1, and 192A7B9 chimeric mAbs on human or cynomolgus PBMC. SP34 (Biointron, B6762) and OKT3 (Biointron, B6928) served as the benchmark controls.
Briefly, cynoPBMCs were first incubated with 3-fold serially diluted 153A6B1, 155A9B1, and 192A7B9 chimeric mAbs starting at 10 nM at 4° C. for 30 mins. While huPBMCs were incubated with 4-fold serially diluted 153A6B1, 155A9B1, and 192A7B9 chimeric mAbs starting at 10 nM at 4° C. for 30 mins. After washing by PBS, PE Goat anti-Human IgG Fc Secondary Antibody (eBioscience™, Invitrogen) was added to each well and incubated at 4° C. for 30 mins. Samples were washed twice with FACS buffer. The mean florescence intensity (MFI) of PE was evaluated by MACSQuant Analyzer 16.

Numbering of substitutions follows the chain as printed.

Sequence of human CD3 on cells (human PBMC; Jurkat-CD3-NFAT and TCR/CD3 Effector reporter cells) (human) (P07766 23-207, chain 1 of 3): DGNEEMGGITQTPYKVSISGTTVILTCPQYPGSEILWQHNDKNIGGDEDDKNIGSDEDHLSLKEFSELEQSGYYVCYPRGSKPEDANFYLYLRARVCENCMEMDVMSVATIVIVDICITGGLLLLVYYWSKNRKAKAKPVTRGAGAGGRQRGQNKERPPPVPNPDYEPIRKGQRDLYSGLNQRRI
Sequence of human CD3 on cells (human PBMC; Jurkat-CD3-NFAT and TCR/CD3 Effector reporter cells) (human) (P04234 22-171, chain 2 of 3, further chain): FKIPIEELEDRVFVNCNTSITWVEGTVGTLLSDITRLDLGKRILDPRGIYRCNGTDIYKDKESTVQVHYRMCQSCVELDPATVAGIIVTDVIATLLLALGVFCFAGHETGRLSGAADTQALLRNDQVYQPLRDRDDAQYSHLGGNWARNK
Sequence of human CD3 on cells (human PBMC; Jurkat-CD3-NFAT and TCR/CD3 Effector reporter cells) (human) (P09693 23-182, chain 3 of 3, further chain): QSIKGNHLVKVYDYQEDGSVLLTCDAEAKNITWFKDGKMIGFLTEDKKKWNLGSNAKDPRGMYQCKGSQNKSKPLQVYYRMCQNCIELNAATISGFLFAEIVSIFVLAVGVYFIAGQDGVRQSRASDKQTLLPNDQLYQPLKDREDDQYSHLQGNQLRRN
T1 sequence (P07766 23-207, chain 1 of 3): as the sequence (P07766 23-207, chain 1 of 3) above
T1 sequence (P04234 22-171, chain 2 of 3): as the sequence (P04234 22-171, chain 2 of 3, further chain) above
T1 sequence (P09693 23-182, chain 3 of 3): as the sequence (P09693 23-182, chain 3 of 3, further chain) above

B1: Hu155A9B1-1 (antibody, V domains shown)
VH: EVQLQESGPGLVKPSETLSLTCTVSGGSISSYNVHWIRQPPGKGLEWIGRVRYNGDTSYNSALKSRVTISVDTSKNQFSLKLSSVTAADTAVYYCARGPYGGSSEPLFDYWGQGTMVTVSS
VL: DIQMTQSPSSLSASVGDRVTITCKASQNINKYLNWYQQKPGKAPRLLIYTTNNLQTGVPSRFSGSGSGTDFTLTISSLQPEDFATYYCLQHNSGYTFGQGTKLEIK
B1 returned a % of SP34 in experiment [1] of 14.2%.

B2: Hu155A9B1-13 (antibody, V domains shown)
VH: B1 VH
VL: B1 VL with Y36F, V58I, Y87F
For B2, in experiment [1], the % of SP34 turned out to be 18.4%.

B3: SP34 monoclonal antibody (antibody, human IgG1, lambda, N297A, V domains shown)
VH: EVQLVESGGGLVQPKGSLKLSCAASGFTFNTYAMNWVRQAPGKGLEWVARIRSKYNNYATYYADSVKDRFTISRDDSQSILYLQMNNLKTEDTAMYYCVRHGNFGNSYVSWFAYWGQGTLVTVSA
VL: QAVVTQESALTTSPGETVTLTCRSSTGAVTTSNYANWVQEKPDHLFTGLIGGTNKRAPGVPARFSGSLIGDKAALTITGAQTEDEAIYFCALWYSNLWVFGGGTKLTVLG
notes: Benchmark, bought (Biointron, B6762)
In the case of B3, the “EC50 (read off the curve)” value in experiment [2] was roughly 0.3 nM.
